{
  "source": "the RNAGym collection of RNA variant scans (doi:10.1073/pnas.2313332121)",
  "parents": {"B1": {"name": "TPR 5TU (parent)", "chain": "GGAUCUUCUCGAUCUAACAAAAAAGACAAAUCUGCCACAAAGCUUGAGAGCAUCUUCGGAUGCAGAGGCGGCAGCCUUCGGUGGCGCGAUAGCGCCAACGUUCUCAACUAUGACACGCAAAACGCGUGCUCCGUUGAAUGGAGUUUAUCAUG"}},
  "note": "Fewer inactive variants are shown than the library holds.",
  "data": [
    {"variants_of": "B1", "assay": "polymerase ribozyme fitness, log enrichment relative to wild type (log ratio); higher = more active; in vitro selection for triplet polymerase activity", "how_it_was_run": "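One round of in vitro selection, in triplicate, was applied to PCR-built, transcribed mutant libraries of each subunit of a heterodimeric triplet polymerase ribozyme. The steps were annealing with a biotinylated primer, partner subunit and triplets, incubation frozen at −7 °C, gel excision of extended constructs, streptavidin-bead capture and RT-PCR. Fitness is the logarithm, base 2, of genotype enrichment over wild-type enrichment from inverse-variance-weighted replicate averages of Illumina-sequenced inputs and outputs, keeping genotypes with ≥10 input reads and ≥1 read per output.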", "values": [
      {"variant": "GGAUCUUCUCGAUCUAACAAAAAAGACAAAUCUGCCACAAAGCUUGAGAGCAUCUUCGGAUGCAGAGGCGGCAGCCUUCGGUGGCGCGAUAACGCCAACGUUCUCAACUAUGACACGCAAAACGCGUGCUCCGUUGAAUGGAGUUUAUUAUG", "note": "[G92A C149U]", "polymerase ribozyme fitness (log ratio)": -3.4},
      {"variant": "GGAUCUUCUCGAGCUAACAAAAAAGACAAAUCUGCCACAAAGCUUGAGAGCAACUUCGGAUGCAGCGGCGGCAGCCUUCGGUUGCGCGAUAGCGCCAACGUUCUCAACUAUGACACGCAAAACGCGUGCUCCGUUGAAUGGAGUUUAUAAUG", "note": "[U13G U53A A66C G83U C149A]", "polymerase ribozyme fitness (log ratio)": "≤ -4.2"},
      {"variant": "GGAUCUUCUCGAUCUAACAAAAAAGACAAAUCUGCCACAAAGCUUGAGAGCAUCUUCGGAUGCAGAGGCGGCAGCCUUCGGUGGCGCGCUAGCGCCAACGUUCUCAACUAUGACACGCAAAACGCGUGCUCCGUUGAAUGGAGUUUAUCAUG", "note": "[A89C]", "polymerase ribozyme fitness (log ratio)": -0.82},
      {"variant": "GGAUGUUCUCGAUCUAACAAAAAAGACAAAUCUGCCACACAGCUUGAGAGCAUCUUCGGAUGCAGAGGCGACAGCCUUCGGUGGAGCGAUAGCGCCAACGUUCUCAACUAUGACACGCAAAACGCGUGCUCCGUUGAAUGGCGUUUAUCCUG", "note": "[C5G A40C G71A C85A A142C A150C]", "polymerase ribozyme fitness (log ratio)": "≤ -4.2"},
      {"variant": "GGAUCUUCUCGAUCUAACAAAAAAGACAAAUCUGCCACAAAGCUUGAAAACAUAUUCGGAUGCAGAGGCGGCAGCCUUCGGUGGCGCGAUAGGGCCAACGUUCACAACUAUGACACGCAAAACGCGUGCUCCGUUGAAUGGAGUUUAUCAUG", "note": "[G48A G50A C54A C93G U104A]", "polymerase ribozyme fitness (log ratio)": "≤ -4.2"},
      {"variant": "GGAUCUUCUCGAUCUAACAAAAAAGACAAAUCUGCCACAAAGCUUGAGAGCAUCUUCGGAUGCAGAGGCGGCAGCCUUCGGUCGCGCGUUAGCGCCAACGUUCUCAACUAUGACACGCAAAACUCGUGCUCCGUUGAAUGGAGUUUAUCAUG", "note": "[G83C A89U G124U]", "polymerase ribozyme fitness (log ratio)": -1.35},
      {"variant": "GGAUCUUCUCGAUCUAACAAAAAAGACAAAUCUGCCACAAAGCUUGAGAGCAACUUCCGAUGCAGAGGCGGCAGCCUUCGGUGGCGCGAUAGCGCCAACGUUCUCAACUAUGACACGCAAAACGCGUGCUCCGUUGAAUGGAGUUUAUCUUG", "note": "[U53A G58C A150U]", "polymerase ribozyme fitness (log ratio)": 0.575},
      {"variant": "GGAUCUUCUCGAUCUAACAAUAAAGACAAAUCUGCCACAAAGCUUGAGAGCAUCUUCGGAUGCAGAGGCGGCAGCCUUCGGUGGCGCGAUAGCGCUUACGUUCUCAACUAUGACACGCAAAACGCGCGCUCCGUUGAAGGGAGUUUAUCAUG", "note": "[A21U C96U A97U U127C U139G]", "polymerase ribozyme fitness (log ratio)": -2.62},
      {"variant": "GGAUCUUCUCGAUCUAACAAAACAGACAAAUCUGCCACAAAGCUUGAGAGCAUCUUCGGAUGCAGAGGCGGCAGCCUUCGGUGGCGCGAUAGCGCGAACGUUCUCAACUAUGACACGCAAAACGCGUGCUCCGUUGAAUGGAGUUUAUCAUG", "note": "[A23C C96G]", "polymerase ribozyme fitness (log ratio)": -3.81},
      {"variant": "GGAUCUUCUCGAUCUAUCCAAAAAGACAAAUCUGCCACAAAGCUUGAGAGCAUCUUCGGAUGCAGAGGCGGCAGCCUUCGGUGGCGGGUUAGCGCCAACGUUCUCAACUAUGACACGCAAAACGCGUGCUCCGUUGAAUGGAGUUUAUCAUG", "note": "[A17U A19C C87G A89U]", "polymerase ribozyme fitness (log ratio)": "≤ -4.2"},
      {"variant": "GGAUCUUCUCGAUCUAACUAAAAAGACAAAUCUGCCACAACGCUUGAGAGCAUCUUCAGAUGCAGAGGCGGCAGCCUUCGGUGGGGCGAUAGCGCCAACGUUCUCAACUAUGACACGCAAAACGCGUGCUCCGUUGAAUGGAGUUUAUCAUG", "note": "[A19U A41C G58A C85G]", "polymerase ribozyme fitness (log ratio)": -2.71},
      {"variant": "GGAUUUUCUCGAUCUAACAAAAAAGACCAAUCUGCCACAAAGCUUGAGAGCAUCUACGGAUGCAGAGGCGGCAGCCCUCGGUGGCGCGAUAGCACCAACGUUCUCAACUAUGACACGCAAAACGCGUGCUCCGUUGAAUGGAGUUUAUCAUG", "note": "[C5U A28C U56A U77C G94A]", "polymerase ribozyme fitness (log ratio)": "≤ -4.2"},
      {"variant": "GGAUCUUUUCGAUCUAACAAAAAAGACAAAUCUGCCACAAAGCUUGAGAGCAUCUUCCGAUGCAGAGGCGGCAGCCUUCGGUGGCGCGAUAGCGCCAACGUUCUCAACUAUGACACGCAAAACGCGUGCUCCGUUGAAUGGAGUUUAUCAUG", "note": "[C8U G58C]", "polymerase ribozyme fitness (log ratio)": -2.7},
      {"variant": "GGAUCUUCUCGAUCUAACAAAAAAGACAAAUCUGCCACAAAGCUUGAGAGCUUCUUCGGAUGCAGAGGCGGCAGCCUUCGGUGGCGCGAUAGCGCCAACGUUCUCAACUAUGACACGCAAAACGCGUGCUCCGUUGAAUGGAGUUUAUCGUG", "note": "[A52U A150G]", "polymerase ribozyme fitness (log ratio)": -1.24},
      {"variant": "GGAUCUUCUCGAUCUAACAAAAAAGACAAAUCUGCCACAAAGCUUGAGAGCAUCUUGGGAUGCAGAGGCGGCAGCCUUCAGUGACGCGAUAGCGCCAACGUUCUCAACUAUGACACGCAAAACGCGUGCUCCGUUGAAUGGAGUUUAUCAUG", "note": "[C57G G80A G84A]", "polymerase ribozyme fitness (log ratio)": -0.169},
      {"variant": "GGAUCUUCUCGAUGUAACAAUAAAGACAAUCCUGCCACAAAGCUUGAGAGCAUCUUCGGAUGCAGAGGCGGCAGCCUUCGGUGGCGCGAUAGCGCCAACGUUCUCAACUAUGACACGCAAAACGCGUGCUCCGUUGAAUGGAGUUUAUCAUG", "note": "[C14G A21U A30U U31C]", "polymerase ribozyme fitness (log ratio)": "≤ -4.2"},
      {"variant": "GGAUCUUCUCGCUCUAACAAAAAAGACAAAUCUGCCACAAAGCUUGAGAGCAUCUUCGGAGGCAGAGGCGGCAGGCUUCGGUGGCGCGAUAGCGCUAACGUUCUCAACUAUGACACGCAAAACGCGUGCUUCGUUGAAUUAAGUUUAUCAUG", "note": "[A12C U61G C75G C96U C131U G140U G141A]", "polymerase ribozyme fitness (log ratio)": "≤ -4.2"},
      {"variant": "GGAUCUUCUCGAUCUAACAAAAAAGACAAAUCUGCCACAACGCUUGAGAGCAUCUUCGGAUGGAGAGGCCGCAGCCUUCGGUGGUGCGAUAGCGCCCACGUUCUCAACUAUGACACGCAAAACGCGUGCUCCGUUGAAUGGAGAUUAUCAUG", "note": "[A41C C63G G70C C85U A97C U144A]", "polymerase ribozyme fitness (log ratio)": "≤ -4.2"},
      {"variant": "GGAUCUUCUCGAUCUAACAAAAGAGACAAAUCUGCCACAGACCUUGAGAGCAUCUUCGGAUGCAGAGGCGGCAGCCUUCGGUGGCGCGAUAGCGCCAACGUUCUCAACUAUGACACGCAAAACGCGUGCUCCGUUGAAUGGAGUUUAUCAUG", "note": "[A23G A40G G42C]", "polymerase ribozyme fitness (log ratio)": "≤ -4.2"}
    ]}
  ]
}
